{"source": "paper PMC6990647", "binders": {"B1": {"name": "NS19FAM duplex (dsDNA)", "DNA 1": "GCTCTGTACATGAGCAGTG", "DNA 2": "CACTGCTCATGTACAGAGC"}}, "target": "hUNG2 N-terminal domain (NTD) (Homo sapiens, UniProt P13051 1-92)", "sequence (P13051 1-92)": "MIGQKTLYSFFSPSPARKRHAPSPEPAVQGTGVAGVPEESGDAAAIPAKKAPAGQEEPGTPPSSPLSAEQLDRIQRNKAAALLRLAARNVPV", "assay": "fluorescence anisotropy"}
{"binder": "GCTCTGTACATGAGCAGTG (ssDNA)", "note": "[NS19FAM ssDNA]", "values": [{"measurement": "Kd", "result": 23, "unit": "µM"}]}
{"binder": "B1", "values": [{"measurement": "Kd", "result": 10, "unit": "µM"}]}
